Like-named read-outs stand apart in the source and are kept apart here. Ends that are not written are not given here.
B1: LiRAD51^ATPase (Leishmania infantum RAD51 ATPase domain, residues 134–386) (domain or fragment)
chain: EIIMVTTGSREVDKLLGGGIETGSITELFGEFRTGKTQLCHTLCVTCQLPISQGGAEGMALYIDTEGTFRPERLVAVAARYGLDPEDVLANVACARAFNTDHQQQLLLQASAMMAENRFALIVVDSATALYRTDYSGRNELAARQMHLGKFLRSLHNLAEEYGVAVVVTNQVVANVDGSAQMFQADSKKPIGGHIMAHASTTRLSLRKGRGEQRIIKVYDSPCLAEAEAIFGIYDDGVGDARD

What was measured:
[1] = biological target: B1; assay: FP
[2] = biological target: B1; assay: FP
[3] = biological target: B1; assay: ITC
[4] = biological target: B1; assay: FP
[5] = biological target: LiBRC1.4; assay: FP
[6] = biological target: LiBRC1.5; assay: FP
[7] = biological target: LiBRC1.12; assay: FP
[8] = biological target: LiBRC1.6; assay: FP

LVPTLFSTASGKPVTVRRESLQKV (domain or fragment, not fully specified (N-terminus, C-terminus); also: GB1 fusion) [LiBRC1.9 (C-terminal truncation of LiBRC1, GB1 fusion)]
Kd [1]: 2630 nM | IC50 [2]: 11000 nM

GSLVPTLFSTASGKPVTVRRESLQKVAERLGDLAA [LiBRC1 free peptide]
Ka [3]: 1.54e+06 M⁻¹

GB1-RVPTLFETGRGKAVTVQKRSLDKAEASMDSLEA-His8 (domain or fragment) [GB1-LiBRC2-His8 (BRC repeat 2 of Leishmania infantum BRCA2 fused to GB1)]
IC50 [4]: 55000 nM

B1
Kd [5]: 410 nM | Kd [6]: 380 nM | Kd [7]: > 124000 nM | Kd [8]: 1090 nM

LVPTLFSTASGKPVTVRRESLQK (domain or fragment, not fully specified (N-terminus); also: GB1 fusion) [LiBRC1.10 (C-terminal truncation of LiBRC1, Val131 also removed, GB1 fusion)]
IC50 [2]: 41000 nM

LVPTLFSTASGKPVTVRRESLQ (domain or fragment, not fully specified (N-terminus); also: GB1 fusion) [LiBRC1.11 (C-terminal truncation of LiBRC1 up until Gln129, GB1 fusion)]
IC50 [2]: 36500 nM

LVPTLFSTASGKPVTVRRESLQKVAE (domain or fragment, not fully specified (N-terminus); also: GB1 fusion) [LiBRC1.7 (C-terminal truncation of LiBRC1, residues up to Arg134 removed, GB1 fusion)]
IC50 [2]: 1990 nM

LVPTLFSTASGKPVTVRRESLQKVA (domain or fragment, not fully specified (N-terminus); also: GB1 fusion) [LiBRC1.8 (C-terminal truncation of LiBRC1, Glu133 also removed, GB1 fusion)]
IC50 [2]: 8800 nM

GB1-LVPTLFSTASGKPVTVRRESLQKVAERLGDLAA-His8 (domain or fragment) [GB1-LiBRC1-His8 (BRC repeat 1 of Leishmania infantum BRCA2 fused to GB1)]
IC50 [4]: 1570 nM

LVPTLFSTASGKPVTVRRESLQKVAERLGDLAAPDME (domain or fragment, not fully specified (N-terminus); also: GB1 fusion) [LiBRC1.2 (LiBRC1 with extended termini, GB1 fusion)]
IC50 [2]: 1200 nM

AAAPPLVPTLFSTASGKPVTVRRESLQKVAERLGDLAA (domain or fragment, not fully specified (N-terminus); also: GB1 fusion) [LiBRC1.3 (LiBRC1 with extended termini, GB1 fusion)]
IC50 [2]: 1670 nM
